Article PMC3687597 (Clinical and Developmental Immunology, 2013)

Target: T1, anthrax lethal factor (LF) (Bacillus anthracis, strain , UniProt P15917)
T1 construct: source: purified; produced in Dr. Nick Duesbery's lab at Van Andel Research Institute
Assay: ELISA
Settings: both partners purified

T1 sequence (P15917 34-809): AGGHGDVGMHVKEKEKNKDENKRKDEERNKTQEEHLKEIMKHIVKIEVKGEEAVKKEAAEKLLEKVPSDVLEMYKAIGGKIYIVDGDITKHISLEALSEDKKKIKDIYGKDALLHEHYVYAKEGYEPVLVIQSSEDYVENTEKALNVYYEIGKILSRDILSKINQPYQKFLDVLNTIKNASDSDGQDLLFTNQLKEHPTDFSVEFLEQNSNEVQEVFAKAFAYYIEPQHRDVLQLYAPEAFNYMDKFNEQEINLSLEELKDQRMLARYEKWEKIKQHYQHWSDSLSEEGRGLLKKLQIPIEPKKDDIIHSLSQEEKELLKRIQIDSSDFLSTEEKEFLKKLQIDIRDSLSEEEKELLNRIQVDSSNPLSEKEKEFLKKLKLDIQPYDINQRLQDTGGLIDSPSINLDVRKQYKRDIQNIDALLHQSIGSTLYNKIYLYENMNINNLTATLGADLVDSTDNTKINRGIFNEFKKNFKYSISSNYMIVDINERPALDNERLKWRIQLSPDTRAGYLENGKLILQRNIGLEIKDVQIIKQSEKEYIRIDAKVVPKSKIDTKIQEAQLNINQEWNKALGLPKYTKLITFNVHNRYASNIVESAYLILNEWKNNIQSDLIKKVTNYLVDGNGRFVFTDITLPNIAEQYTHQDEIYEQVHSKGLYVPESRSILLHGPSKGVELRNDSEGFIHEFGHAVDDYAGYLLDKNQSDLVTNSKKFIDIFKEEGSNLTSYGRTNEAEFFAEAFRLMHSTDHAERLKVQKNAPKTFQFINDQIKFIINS

B1:  (Fab, V domains shown)
VH: EVQLQQSGAELVKPGASVKLSCTASGFNIKDSYMHWVKQRPEQGLEWIGRIDPANGNTKYDPKFQGKATITVDTSSNTAYLQLSSLTSEDTAVYYCTRLDYWGQGTTLTVS
VL: ENVLTQSPAIMSASLGEKVTMSCRASSSVNYMYWYQQKSDASPKLWIYSTSNLAPGVPARFSGSGSGNSYSLTISSMEGEDAATYYCQQFTSSPSALTFGAGTKLEIK
notes: also called LF8-Fab; chimeric anti-LF Fab
Work on B1 yielded a Ka of 3.46e+07 M⁻¹.
